# Test results from patent EP1137792B9.
# Legend:
# Assay in all cases: cell-based or functional assay
# [1] = target: murine LFA-3 (murine CD48) (murine) (UniProt P18181)
# [2] = target: murine Intercellular adhesion molecule-1 (ICAM-1; CD54) (murine) (UniProt P13597)
# [3] = target: murine B7-1 (CD80) (murine) (UniProt Q00609)
# UniProt Q00609, sequence (Q00609 38-306): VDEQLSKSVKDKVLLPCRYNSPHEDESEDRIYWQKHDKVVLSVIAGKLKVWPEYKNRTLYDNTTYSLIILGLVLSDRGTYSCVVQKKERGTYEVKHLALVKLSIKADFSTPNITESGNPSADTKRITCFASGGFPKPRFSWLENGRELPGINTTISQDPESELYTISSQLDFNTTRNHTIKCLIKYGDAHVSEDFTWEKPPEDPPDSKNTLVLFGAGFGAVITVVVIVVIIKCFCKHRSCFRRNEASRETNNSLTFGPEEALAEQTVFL
# UniProt P18181, sequence (P18181 23-217): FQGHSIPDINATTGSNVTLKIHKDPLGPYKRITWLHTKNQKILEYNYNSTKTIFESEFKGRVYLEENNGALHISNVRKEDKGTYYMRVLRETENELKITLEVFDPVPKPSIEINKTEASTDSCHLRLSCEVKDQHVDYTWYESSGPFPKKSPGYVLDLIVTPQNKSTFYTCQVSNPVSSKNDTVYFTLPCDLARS
# UniProt P13597, sequence (P13597 28-537): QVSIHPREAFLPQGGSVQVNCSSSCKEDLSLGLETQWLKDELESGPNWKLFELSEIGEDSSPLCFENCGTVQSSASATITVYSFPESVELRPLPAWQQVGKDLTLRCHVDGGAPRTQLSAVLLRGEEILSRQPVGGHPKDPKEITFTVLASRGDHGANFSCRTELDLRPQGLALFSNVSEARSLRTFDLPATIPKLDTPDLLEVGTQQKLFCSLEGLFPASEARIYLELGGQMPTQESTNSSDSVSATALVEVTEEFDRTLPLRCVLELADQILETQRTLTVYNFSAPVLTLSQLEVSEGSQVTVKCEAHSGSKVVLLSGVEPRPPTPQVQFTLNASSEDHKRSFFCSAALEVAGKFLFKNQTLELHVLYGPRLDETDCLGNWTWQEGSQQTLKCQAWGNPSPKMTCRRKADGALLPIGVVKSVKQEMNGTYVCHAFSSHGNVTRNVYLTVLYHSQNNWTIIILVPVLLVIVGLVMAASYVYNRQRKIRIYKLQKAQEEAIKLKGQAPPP
substance,measurement,setting,value
Hamster anti-murine CD48 (BCM-1; clone HM48-1) (antibody),reduction of the increased T-cell proliferation supported by MC38/LFA-3 stimulator cells with Con A,[1],98%
Hamster anti-murine CD54 (ICAM-1; clone 3E2) (antibody),reduction of the increased T-cell proliferation supported by MC38/ICAM-1 stimulator cells with Con A,[2],88%
Hamster anti-murine CD80 (B7-1; clone 16-10A1) (antibody),inhibition of the increased T-cell proliferation supported by MC38/B7-1 stimulator cells with Con A,[3],83%
